This assay addresses T1, SLP65 peptide (Homo sapiens, UniProt Q8WV28).
T1 chain: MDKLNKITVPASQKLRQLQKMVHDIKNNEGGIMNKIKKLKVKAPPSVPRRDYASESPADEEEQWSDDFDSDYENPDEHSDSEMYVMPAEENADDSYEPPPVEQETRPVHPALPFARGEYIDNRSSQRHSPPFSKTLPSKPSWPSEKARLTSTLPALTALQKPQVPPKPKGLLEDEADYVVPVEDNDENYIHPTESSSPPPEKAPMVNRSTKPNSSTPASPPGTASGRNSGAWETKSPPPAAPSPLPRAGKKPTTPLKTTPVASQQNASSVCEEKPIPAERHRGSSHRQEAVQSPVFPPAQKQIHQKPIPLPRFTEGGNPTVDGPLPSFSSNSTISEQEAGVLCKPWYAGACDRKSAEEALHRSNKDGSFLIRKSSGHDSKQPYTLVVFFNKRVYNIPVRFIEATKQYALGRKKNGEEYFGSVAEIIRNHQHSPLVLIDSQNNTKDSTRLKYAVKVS
Nature of the assay: ITC.

One molecule from article PMC5430726 (2017) can be followed below.

What is called Kd is a measure of binding affinity in units of concentration. A lower Kd goes with a tighter complex.

B1: Grb2 SH3C (protein)
chain: QQPTYVQALFDFDPQEDGELGFRRGDFIHVMDNSDPNWWKGACHGQTGMFPRNYVTPVNR
modifications: Grb2 SH3C pre-bound to Vav SH3N
As for B1, the Kd was 33.3 µM.
